Results: patent US20230265151A1, “GIP/GLP1 CO-AGONIST COMPOUNDS” (priority 2020, published 2023)

Tests used:
Experiment in all cases: cell-based or functional assay
hGLP-1R = hGLP-1R (Homo sapiens, UniProt P43220)
[1] = biological target: T1, human GIP receptor (human) (UniProt P48546)
T1 sequence (looked up): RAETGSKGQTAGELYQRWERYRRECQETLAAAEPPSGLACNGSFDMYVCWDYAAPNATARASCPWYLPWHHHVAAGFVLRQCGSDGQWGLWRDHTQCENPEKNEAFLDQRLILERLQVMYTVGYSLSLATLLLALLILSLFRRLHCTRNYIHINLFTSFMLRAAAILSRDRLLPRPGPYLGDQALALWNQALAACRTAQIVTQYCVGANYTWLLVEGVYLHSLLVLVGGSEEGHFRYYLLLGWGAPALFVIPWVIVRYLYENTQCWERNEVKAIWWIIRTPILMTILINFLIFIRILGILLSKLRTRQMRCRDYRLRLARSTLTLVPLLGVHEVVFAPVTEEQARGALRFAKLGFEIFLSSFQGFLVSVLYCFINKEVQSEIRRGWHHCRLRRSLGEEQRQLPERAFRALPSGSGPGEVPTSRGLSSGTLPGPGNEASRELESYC

[2] = biological target: human glucagon receptor (human) (UniProt P47871)
human GIP receptor [3] = biological target: T2, human GIP receptor (human, UniProt P48546 22-466)
T2 sequence (looked up): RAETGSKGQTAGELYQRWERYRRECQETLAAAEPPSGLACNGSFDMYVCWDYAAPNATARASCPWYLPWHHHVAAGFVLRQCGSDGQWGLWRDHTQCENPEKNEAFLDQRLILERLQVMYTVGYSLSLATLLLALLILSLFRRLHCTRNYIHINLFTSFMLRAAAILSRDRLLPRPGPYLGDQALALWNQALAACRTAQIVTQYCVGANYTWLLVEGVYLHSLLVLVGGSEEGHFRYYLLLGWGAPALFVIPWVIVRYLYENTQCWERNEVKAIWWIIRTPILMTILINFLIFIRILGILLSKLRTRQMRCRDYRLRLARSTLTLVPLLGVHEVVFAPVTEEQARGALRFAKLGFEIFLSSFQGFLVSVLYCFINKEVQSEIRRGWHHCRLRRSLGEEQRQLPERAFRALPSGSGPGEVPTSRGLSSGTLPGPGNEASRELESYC

human GLP-1 receptor [4] = biological target: human GLP-1 receptor (human, UniProt P43220 24-463)
human GIP receptor [5] = biological target: T3, human GIP receptor (human, UniProt P48546 22-466); remark: listed apart in the source
T3 sequence (looked up): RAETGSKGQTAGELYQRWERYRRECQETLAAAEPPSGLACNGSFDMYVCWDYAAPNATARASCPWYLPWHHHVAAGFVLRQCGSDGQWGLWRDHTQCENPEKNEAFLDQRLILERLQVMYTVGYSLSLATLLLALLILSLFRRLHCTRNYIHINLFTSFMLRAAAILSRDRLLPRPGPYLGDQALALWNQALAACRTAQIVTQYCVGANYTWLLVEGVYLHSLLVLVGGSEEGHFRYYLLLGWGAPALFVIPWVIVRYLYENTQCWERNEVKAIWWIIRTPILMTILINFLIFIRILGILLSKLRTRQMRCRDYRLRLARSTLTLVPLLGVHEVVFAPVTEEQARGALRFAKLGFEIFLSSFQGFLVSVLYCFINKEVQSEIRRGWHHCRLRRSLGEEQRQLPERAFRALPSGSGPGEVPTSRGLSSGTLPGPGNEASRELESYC

human GLP-1 receptor [6] = biological target: human GLP-1 receptor (human, UniProt P43220 24-463); remark: listed apart in the source

Molecule: Y-Aib-EGT-αMeF(2F)-TSD-4Pal-SI-αMeL-LD-Orn-K((2-[2-(2-Amino-ethoxy)-ethoxy]-acetyl)2-(γ-Glu)-CO-(CH2)12-CO2H)AQ-Aib-EFIK((2-[2-(2-Amino-ethoxy)-ethoxy]-acetyl)2-(γ-Glu)-CO-(CH2)12-CO2H)-αMeY-LIEG-Orn-NH2 (peptide)
- cAMP EC50 (1.0% HSA) (hGLP-1R): 28.9 nM
- cAMP Emax (1.0% HSA) (hGLP-1R): 112%
- cAMP EC50 (1.0% HSA) [1]: 1.55 nM
- cAMP Emax (1.0% HSA) [1]: 82.8%
- cAMP EC50 (1.0% HSA) [2]: > 9950 nM

Molecule: Y-Aib-EGT-αMeF(2F)-TSD-4Pal-SI-αMeL-LD-Orn-IAQ-Aib-K((2-[2-(2-Amino-ethoxy)-ethoxy]-acetyl)2-(γ-Glu)-CO-(CH2)12-CO2H)FIK((2-[2-(2-Amino-ethoxy)-ethoxy]-acetyl)2-(γ-Glu)-CO-(CH2)12-CO2H)-αMeY-…-NH2 (peptide)
- cAMP EC50 (1.0% HSA) (hGLP-1R): 18.9 nM
- cAMP Emax (1.0% HSA) (hGLP-1R): 102%
- cAMP EC50 (1.0% HSA) [1]: 2.32 nM
- cAMP Emax (1.0% HSA) [1]: 86.8%
- cAMP EC50 (1.0% HSA) [2]: > 9950 nM

Molecule: Y-Aib-EGT-αMeF(2F)-TSD-4Pal-SI-αMeL-LD-Orn-K((2-[2-(2-Amino-ethoxy)-ethoxy]-acetyl)2-(γ-Glu)-(4-(4-tert-butylphenyl)butanoyl))AQ-Aib-EFIE-K((2-[2-(2-Amino-ethoxy)-ethoxy]-acetyl)2-(γ-Glu)-(4-(4-tert-butylphenyl)butanoyl))…-NH2 (peptide)
- cAMP EC50 (1.0% HSA) (hGLP-1R): 5.79 nM
- cAMP Emax (1.0% HSA) (hGLP-1R): 102%
- cAMP EC50 (1.0% HSA) [1]: 0.0831 nM
- cAMP Emax (1.0% HSA) [1]: 92.4%
- cAMP EC50 (1.0% HSA) [2]: > 9950 nM

B1: Example 334 (peptide)
peptide: YXEGTXTSDXXIXLDXKAQXEFIXXLIKGGPSSGAPPPS
modifications: Y-Aib-EGT-αMeF(2F)-TSD-4Pal-Aib-I-αMeL-LD-Orn-K((2-[2-(2-Amino-ethoxy)-ethoxy]-acetyl)2-(γ-Glu)-CO-(CH2)10-CH3)AQ-Aib-EFI-(D-Glu)-αMeY-LIK((2-[2-(2-Amino-ethoxy)-ethoxy]-acetyl)2-(γ-Glu)-CO-(CH2)10-CH3)GGPSSGAPPPS-NH2
- cAMP EC50 (hGLP-1R): 0.131 nM
- cAMP Emax (hGLP-1R): 104%
- cAMP EC50 [1]: 0.00987 nM
- cAMP Emax [1]: 103%
- cAMP EC50 [2]: > 9950 nM
- cAMP EC50 (1.0% HSA) (human GIP receptor [3]): 0.618 nM
- cAMP EC50 (1.0% HSA) (human GLP-1 receptor [4]): 8.67 nM

B2: Example 358 (peptide)
peptide: YXEGTXTSDXXIXLDXKAQXEFIXXLIKGGPSSGAPPPS
modifications: Y-Aib-EGT-αMeF(2F)-TSD-4Pal-Aib-I-αMeL-LD-Orn-K((2-[2-(2-Amino-ethoxy)-ethoxy]-acetyl)2-(γ-Glu)-CO-(CH2)12-CO2H)AQ-Aib-EFI-(D-Glu)-αMeY-LIK((2-[2-(2-Amino-ethoxy)-ethoxy]-acetyl)2-(γ-Glu)-CO-(CH2)12-CO2H)GGPSSGAPPPS-NH2
- cAMP EC50 (hGLP-1R): 0.773 nM
- cAMP Emax (hGLP-1R): 107%
- cAMP EC50 [1]: 0.0137 nM
- cAMP Emax [1]: 99.6%
- cAMP EC50 [2]: > 10100 nM
- cAMP EC50 (1.0% HSA) (human GIP receptor [5]): 2.06 nM
- cAMP Emax (1.0% HSA) (human GIP receptor [5]): 86.2%
- cAMP EC50 (1.0% HSA) (human GLP-1 receptor [6]): 65.3 nM

B3: Example 361 (peptide)
peptide: YXEGTXTSDXXIXLDXKAQXEFIXXLIKGGPSSGAPPPS
modifications: Y-Aib-EGT-αMeF(2F)-TSD-4Pal-Aib-I-αMeL-LD-Orn-K((2-[2-(2-Amino-ethoxy)-ethoxy]-acetyl)-(γ-Glu)-(10-(4-carboxyphenoxy)decanoyl))AQ-Aib-EFIe-αMeY-LIK((2-[2-(2-Amino-ethoxy)-ethoxy]-acetyl)-(γ-Glu)-(10-(4-carboxyphenoxy)decanoyl))GGPSSGAPPPS-NH2
- cAMP EC50 (hGLP-1R): 0.58 nM
- cAMP Emax (hGLP-1R): 98.2%
- cAMP EC50 [1]: 0.0121 nM
- cAMP Emax [1]: 107%
- cAMP EC50 [2]: > 9950 nM
- cAMP EC50 (1.0% HSA) (human GIP receptor [5]): 1.44 nM
- cAMP Emax (1.0% HSA) (human GIP receptor [5]): 88.8%
- cAMP EC50 (1.0% HSA) (human GLP-1 receptor [6]): 43 nM

B4: Example 387 (peptide)
peptide: YXEGTXTSDXXIXLDXKAQXEFIXXLIKGGPSSGAPPPS
modifications: Y-Aib-EGT-αMeF(2F)-TSD-4Pal-Aib-I-αMeL-LD-Orn-K((2-[2-(2-Amino-ethoxy)-ethoxy]-acetyl)2-CO-(CH2)12-CO2H)AQ-Aib-EFI-(D-Glu)-αMeY-LIK((2-[2-(2-Amino-ethoxy)-ethoxy]-acetyl)2-CO-(CH2)12-CO2H)GGPSSGAPPPS-NH2
- cAMP EC50 (hGLP-1R): 0.32 nM
- cAMP Emax (hGLP-1R): 101%
- cAMP EC50 [1]: 0.0137 nM
- cAMP Emax [1]: 102%
- cAMP EC50 [2]: > 9950 nM
- cAMP EC50 (1.0% HSA) (human GIP receptor [5]): 0.278 nM
- cAMP Emax (1.0% HSA) (human GIP receptor [5]): 93%
- cAMP EC50 (1.0% HSA) (human GLP-1 receptor [6]): 4.4 nM

B5: Example 395 (peptide)
peptide: YXEGTXTSDXXIXLDXKAQXEFIXXLIKGGPSSGAPPPS
modifications: Y-Aib-EGT-αMeF(2F)-TSD-4Pal-Aib-I-αMeL-LD-Orn-K((2-[2-(2-Amino-ethoxy)-ethoxy]-acetyl)2-(10-(4-carboxyphenoxy)decanoyl))AQ-Aib-EFI-(D-Glu)-αMeY-LIK((2-[2-(2-Amino-ethoxy)-ethoxy]-acetyl)2-(10-(4-carboxyphenoxy)decanoyl))GGPSSGAPPPS-NH2
- cAMP EC50 (hGLP-1R): 0.377 nM
- cAMP Emax (hGLP-1R): 90.8%
- cAMP EC50 [1]: 0.0127 nM
- cAMP Emax [1]: 93.1%
- cAMP EC50 [2]: > 9950 nM
- cAMP EC50 (1.0% HSA) (human GIP receptor [5]): 0.327 nM
- cAMP Emax (1.0% HSA) (human GIP receptor [5]): 57.8%
- cAMP EC50 (1.0% HSA) (human GLP-1 receptor [6]): 6.26 nM

B6: Example 406 (peptide)
peptide: YXEGTXTSDXXIXLDXKAQXKFIXXLIXGGPSSGAPPPS
modifications: Y-Aib-EGT-αMeF(2F)-TSD-4Pal-Aib-I-αMeL-LD-Orn-K((2-[2-(2-Amino-ethoxy)-ethoxy]-acetyl)2-(γ-Glu)-CO-(CH2)12-CO2H)AQ-Aib-K((2-[2-(2-Amino-ethoxy)-ethoxy]-acetyl)2-(γ-Glu)-CO-(CH2)12-CO2H)FI-(D-Glu)-αMeY-LI-Orn-GGPSSGAPPPS-NH2
- cAMP EC50 (hGLP-1R): 0.351 nM
- cAMP Emax (hGLP-1R): 98.5%
- cAMP EC50 [1]: 0.00896 nM
- cAMP Emax [1]: 101%
- cAMP EC50 [2]: > 9950 nM
- cAMP EC50 (1.0% HSA) (human GIP receptor [5]): 0.527 nM
- cAMP EC50 (1.0% HSA) (human GLP-1 receptor [6]): 9.21 nM
